ChEMBL document CHEMBL1140886, “Development of an optimized activatable MMP-14 targeted SPECT imaging probe” (Bioorg Med Chem, 2009)

Substrate: CC[C@H](C)[C@H](NC(=O)[C@H](CCCNC(=N)N)NC(=O)CNC(=O)[C@@H](N)CO)C(=O)NCC(=O)N[C@@H](Cc1ccccc1)C(=O)N[C@@H](CC(C)C)C(=O)N[C@@H](CCCNC(=N)N)C(=O)N[C@H](C(=O)N[C@@H](C)C(=O)O)[C@@H](C)O
Assay: Ratio of kcat/km for MMP9 assessed as drug cleavage

B1: Matrix metalloproteinase-9 (Homo sapiens), P14780 (protein)
chain: MSLWQPLVLVLLVLGCCFAAPRQRQSTLVLFPGDLRTNLTDRQLAEEYLYRYGYTRVAEMRGESKSLGPALLLLQKQLSLPETGELDSATLKAMRTPRCGVPDLGRFQTFEGDLKWHHHNITYWIQNYSEDLPRAVIDDAFARAFALWSAVTPLTFTRVYSRDADIVIQFGVAEHGDGYPFDGKDGLLAHAFPPGPGIQGDAHFDDDELWSLGKGVVVPTRFGNADGAACHFPFIFEGRSYSACTTDGRSDGLPWCSTTANYDTDDRFGFCPSERLYTQDGNADGKPCQFPFIFQGQSYSACTTDGRSDGYRWCATTANYDRDKLFGFCPTRADSTVMGGNSAGELCVFPFTFLGKEYSTCTSEGRGDGRLWCATTSNFDSDKKWGFCPDQGYSLFLVAAHEFGHALGLDHSSVPEALMYPMYRFTEGPPLHKDDVNGIRHLYGPRPEPEPRPPTTTTPQPTAPPTVCPTGPPTVHPSERPTAGPTGPPSAGPTGPPTAGPSTATTVPLSPVDDACNVNIFDAIAEIGNQLYLFKDGKYWRFSEGRGSRPQGPFLIADKWPALPRKLDSVFEERLSKKLFFFSGRQVWVYTGASVLGPRRLDKLGLGADVAQVTGALRSGRGKMLLFSGRRLWRFDVKAQMVDPRSASEVDRMFPGVPLDTHDVFQYREKAYFCQDRFYWRVSSRSELNQVDQVGYVTYDILQCPED
- kcat/Km: 20000 M⁻¹ s⁻¹
